{"source": "patent US20140134180A1", "about": "(E R SQUIBB AND SONS L L C, published 2014)", "binders": {"B1": {"name": "1G11 human monoclonal antibody (antibody, V domains shown)", "VH": "QVQLQQWGAGLLKPSETLSLTCAVYGGSFSDYFWTWIRQPPGKGLEWIGEINHSGTTNYNPSLKSRVTISADTSKNQFSLRLSSVTAADTAVYYCARLSSWSNWAFEYWGQGTLVTVSS", "VL": "EIVLTQFPGTLSLSPGERATLSCRASQSVSSTYLAWYQQKPGQAPRVLIYGASRRATGIPDRFSGSGSGTDFTLTISRLEPEDFAVYYCQQYGSSPLTFGGGTKVEIK", "notes": "Human IgG from a hybridoma of mice carrying a human kappa transgene; also called 1G11.H11-FITC; 1G11.H1"}, "B2": {"name": "12E1 human monoclonal antibody (antibody, V domains shown)", "VH": "EVQLVESGGGLVQPGRSLRLSCVASGFTFDDYAMHWVRQAPGKGLEWVSGISWNSGSIGYADSVKGRFTISRDNAKNSLYLQMNSLRAEDTALYYCTKALYGSGSSDFYYYGMDVWGQGTTVAVSS", "VL": "EIVLTQSPATLSLSPGERATLSCRASQSVSSYLAWYQQKPGQAPRLLIYDASNRATGIPARFSGSGSGTDFTLTISSLEPEDFAVYYCQQRRTFGQGTKVEIK", "notes": "Human IgG from a hybridoma of mice carrying a human kappa transgene; also called 12E1.G9"}, "B3": {"name": "13D12 human monoclonal antibody (antibody, V domains shown)", "VH": "QVQLQQWGAGLLKPSETLSLTCAVYGGSFSGYYWSWIRQPPGKGLEWIGKINHSGSTNYNPSLKSRVTISVDTSKNQFSLKLNSVTAADTAVYYCARELRYFENYYYGMDVWGQGTTVTVSS", "VL": "not shown", "notes": "Human IgG from a hybridoma of mice carrying a human kappa transgene; also called 13D12.G10"}, "B4": {"name": "2A7 human monoclonal antibody (antibody, V domains shown)", "VH": "EVQLVESGGGLIQPGGSLRLSCAASGFTVSSNYMNWVRQAPGKGLEWVSVIYGSGRTYYADSVKGRVTISRDNSKNTLYLQMNSLRAEDTAVYYCARDTYAMDVWGQGTTVTVSS", "VL": "not shown", "notes": "Human IgG from a hybridoma of mice carrying a human kappa transgene; Fitcylated for immunohistochemistry; also called 2A7.C11; 2A7/C11"}}, "key": {"[1]": {"biological_target": "T1, human O8E, full length, on cells (human, UniProt Q7Z7D3 25-282)", "T1 construct": "also called B7H4; B7S1", "T1 sequence": "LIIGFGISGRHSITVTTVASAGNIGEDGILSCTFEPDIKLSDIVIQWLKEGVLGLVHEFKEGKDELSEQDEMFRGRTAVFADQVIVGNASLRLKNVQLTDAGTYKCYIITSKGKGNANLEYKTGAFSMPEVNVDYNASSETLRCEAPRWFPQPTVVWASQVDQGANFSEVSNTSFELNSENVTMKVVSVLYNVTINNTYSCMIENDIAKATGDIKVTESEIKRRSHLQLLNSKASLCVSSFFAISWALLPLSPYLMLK", "test": "titration of labelled antibody on O8E-transfected cells, sigmoidal dose response fit; FITC-labelled antibody; qualitative ranking", "method": "(§1) HEK cells were transfected with full length O8E using standard techniques and grown in RPMI media containing 10% fetal bovine serum (FBS). […] Millipore plates (MAFB NOB) were coated with 1% nonfat dry milk in water and stored a 4° C. overnight. The plates were washed three times with 0.2 ml of binding buffer. Fifty microliters of buffer alone was added to the maximum binding wells (total binding). Twenty-five microliters of buffer alone was added to the control wells (non-specific binding). Varying concentration of ¹²⁵I-anti-O8E antibody was added to all wells in a volume of 25 μl. (In some cases FITC labeled antibodies were used for the titration since unlabeled material was not available, binding may be compromised in these instances.) Varying concentrations of unlabeled antibody at 100 fold excess was added in a volume of 25 μl to control wells and 25 μl of O8E transfected CHO cells (2×10⁶ cells/ml) in binding buffer were added to all wells. The plates were incubated for 2 hours at 200 RPM on a shaker at 4° C. At the completion of the incubation the Millipore plates were washed three times with 0.2 ml of cold wash buffer (24 mM Tris pH 7.2, 500 mM NaCl, 2.7 mM KCl, 2 mM Glucose, 1 mM CaCl₂, 1 mM MgCl₂, 0.1% BSA.). The filters were removed and counted in a gamma counter. […]"}, "[2]": {"biological_target": "T1, human O8E, full length, on cells", "test": "titration of labelled antibody on O8E-transfected cells, sigmoidal dose response fit; bottom and top fixed for incomplete curve; qualitative ranking", "method": "as §1"}, "[3]": {"biological_target": "T2, Penta-B7H4 ( for this construct)", "T2 construct": "also called Penta-O8E; Penta-B7H4-C9", "test": "ELISA: anti-mouse Fc coat, monoclonal anti-C9 (0.6 ug/ml), Penta-B7H4 titrated 4000 to 2.0 ng/ml, human antibody at 1 ug/ml; the value is a concentration of Penta-B7H4, not of antibody [panel B]", "method": "An ELISA plate was coated with anti-mouse Fc, followed by monoclonal anti-C9 (0.6 ug/ml), then titrated Penta-B7H4 as indicated, then the human antibodies at 1 ug/ml."}, "[4]": {"biological_target": "T1, human O8E, full length, on cells", "test": "titration of labelled antibody on O8E-transfected cells, sigmoidal dose response fit; qualitative ranking", "method": "as §1"}}, "data": [{"binder": "B1", "values": [{"measurement": "EC50", "setting": "[1]", "value": 1.69, "unit": "nM"}]}, {"binder": "B2", "values": [{"measurement": "EC50", "setting": "[2]", "value": "~19.8", "unit": "nM"}, {"measurement": "EC50 (read off the curve)", "setting": "[3]", "value": "~0.05", "unit": "µg/mL"}]}, {"binder": "B3", "values": [{"measurement": "EC50", "setting": "[4]", "value": 0.746, "unit": "nM"}]}, {"binder": "B4", "values": [{"measurement": "EC50 (read off the curve)", "setting": "[3]", "value": "~0.04", "unit": "µg/mL"}]}]}
